What was measured:
Test in all cases: purified protein
Cc1ccc([S@+](C)[O-])cc1 = settings: 20 uM rTrx, 5 uM rTrxR, 0.2 mM NADPH, 50 mM sodium phosphate pH 7.5, 37 °C, MsrA domain
Cc1ccc([S+](C)[O-])cc1 = settings: 20 uM rTrx, 5 uM rTrxR, 0.2 mM NADPH, 50 mM sodium phosphate pH 7.5, 37 °C, racemate, both domains
Cc1ccc([S@@+](C)[O-])cc1 = settings: 20 uM rTrx, 5 uM rTrxR, 0.2 mM NADPH, 50 mM sodium phosphate pH 7.5, 37 °C, MsrB domain

Substance: rMsrAB (Haemophilus influenzae Rd KW20)
- Km (Cc1ccc([S@+](C)[O-])cc1): 3620 ± 550 µM
- Vmax (Cc1ccc([S@+](C)[O-])cc1): 0.52 µmol/min/mg
- kcat (Cc1ccc([S@+](C)[O-])cc1): 0.312 ± 0.12 s⁻¹
- kcat/Km (Cc1ccc([S@+](C)[O-])cc1): 86.1 M⁻¹ s⁻¹
- Km (Cc1ccc([S+](C)[O-])cc1): 2960 ± 440 µM
- Vmax (Cc1ccc([S+](C)[O-])cc1): 0.34 µmol/min/mg
- kcat (Cc1ccc([S+](C)[O-])cc1): 0.204 ± 0.06 s⁻¹
- kcat/Km (Cc1ccc([S+](C)[O-])cc1): 68.9 M⁻¹ s⁻¹
- Km (Cc1ccc([S@@+](C)[O-])cc1): 2310 ± 350 µM
- Vmax (Cc1ccc([S@@+](C)[O-])cc1): 0.26 µmol/min/mg
- kcat (Cc1ccc([S@@+](C)[O-])cc1): 0.156 ± 0.06 s⁻¹
- kcat/Km (Cc1ccc([S@@+](C)[O-])cc1): 67.5 M⁻¹ s⁻¹
